Experimental findings from article PMC2799554 are described below.

The target in this test is Moraxella immunoglobulin (Ig) D binding protein (MID) of M. catarrhalis BBH18, on whole bacteria and on their outer membrane vesicles (OMV) (Moraxella catarrhalis). The test is described as follows: flow cytometry on cells. On the technique in general: In flow cytometry, cells or beads pass a laser one at a time.

For “human IgD, soluble, from serum (natural protein)”, the percent reduction of bacterial binding to B cells at 150 µg/ml IgD came to 40%.
